{"source": "paper PMC11759358", "target": "Flag::Hth (Homothorax, Flag-tagged) (Drosophila) (UniProt O46339)", "sequence (O46339 whole entry)": "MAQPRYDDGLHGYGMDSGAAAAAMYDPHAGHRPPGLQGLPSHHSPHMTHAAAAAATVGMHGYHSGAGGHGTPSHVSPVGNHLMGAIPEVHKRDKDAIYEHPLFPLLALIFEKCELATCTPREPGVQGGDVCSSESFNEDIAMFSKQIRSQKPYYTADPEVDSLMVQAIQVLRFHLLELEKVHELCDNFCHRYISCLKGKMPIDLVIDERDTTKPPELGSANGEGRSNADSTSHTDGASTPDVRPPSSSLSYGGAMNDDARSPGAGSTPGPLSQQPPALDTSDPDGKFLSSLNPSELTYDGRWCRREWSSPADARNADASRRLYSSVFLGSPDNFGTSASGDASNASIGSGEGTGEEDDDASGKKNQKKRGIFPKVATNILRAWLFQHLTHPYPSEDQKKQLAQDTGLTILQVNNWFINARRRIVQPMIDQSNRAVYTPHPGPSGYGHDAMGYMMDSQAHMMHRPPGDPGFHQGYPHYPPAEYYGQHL", "assay": "co-IP; SF9 extracts with Flag::Hth, His::Exd and HA::Abd-B (wild type or W>A) mixed and incubated on anti-Flag resin; lysis solution 140 mM KCl, 5% glycerol, 2.5% MgCl2, 25 mM Hepes pH 7.8, 10 mM imidazole; Western blot by the tags"}
{"substance": "HA::Abd-B^W (Abdominal-B with the Tryptophan of the HX-like motif mutated to Alanine, HA-tagged) (from UniProt P09087 1-493)", "values": [{"measurement": "percent reduction of co-precipitated protein against wild-type Abd-B", "value": 24, "unit": "%"}]}
